The labels stand for the following.
B1: MXI1 peptide 4-19 (Max-interacting protein 1), 16-mer library wild type / SIN3A PAH2 (SIN3A PAH domain, residues 295-383) (parent)
chain 1: VKMINVQRLLEAAEFL
chain 2: SLQNNQPVEFNHAINYVNKIKNRFQGQPDIYKAFLEILHTYQKEQRNAKEAGGNYTPALTEQEVYAQVARLFKNQEDLLSEFGQFLPDA
B2: PAIP1 peptide 126-141 (Polyadenylate-binding protein-interacting protein 1), 16-mer library wild type / PABPC1 PABC (PABPC1 PABC domain, residues 544-623) (parent)
chain 1: SKLSVNAPEFYPSGYS
chain 2: PLTASMLASAPPQEQKQMLGERLFPLIQAMHPTLAGKITGMLLEIDNSELLHMLESPESLRSKVDEAVAVLQAHQAKEAA

The variants in the first test derive from B1. In words: proteomic peptide phage display deep mutational scan (ProP-PD DMS): M13 P8 16-mer library selected against immobilised GST-tagged bait for four days (rounds), NGS of the eluted pools per day and pseudo-replica. The following applies: with SIN3A PAH2 (SIN3A PAH domain, residues 295-383); bait immobilised on MaxiSorp plates (10 µg), library pre-cleared on GST, 2 h binding at 4 °C, five washes; one round per day, days 1-4; value from days 2 and 3; keep out of graded; scale: average fractional NGS count over selection days 2 and 3.
chain 1 VKMINVQRGLEAAEFL: the screen value came out at 0.

For the variant chain 1 VKMINVQRLLPAAEFL, the screen value worked out at 0.

As to chain 1 VKMINVQRLLWAAEFL, the screen value came out at 0.00397.

With chain 1 VKMINVQRLLGAAEFL, the screen value worked out at 0.

In the case of chain 1 VPMINVQRLLEAAEFL, the screen value amounted to 0.00116.

With chain 1 VIMINVQRLLEAAEFL, the screen value was determined as 0.00027.

Take chain 1 VNMINVQRLLEAAEFL: the screen value turned out to be 0.00263.

For chain 1 VRMINVQRLLEAAEFL, the screen value turned out to be 0.000162.

For the variant chain 1 VYMINVQRLLEAAEFL, the screen value came to 0.00178.

Turning to chain 1 VWMINVQRLLEAAEFL, the screen value worked out at 0.00198.

Regarding chain 1 VVMINVQRLLEAAEFL, the screen value turned out to be 0.000308.

chain 1 VMMINVQRLLEAAEFL: the screen value was 0.000167.

For the variant chain 1 VQMINVQRLLEAAEFL, the screen value stood at 0.00731.

For chain 1 VGMINVQRLLEAAEFL, the screen value was found to be 0.00453.

On to chain 1 VLMINVQRLLEAAEFL, for which the screen value was 0.00133.

Take chain 1 VHMINVQRLLEAAEFL: the screen value stood at 0.00169.

chain 1 VSMINVQRLLEAAEFL: the screen value is 0.00272.

As to chain 1 VKMINVQWLLEAAEFL, the screen value worked out at 0.000195.

chain 1 VKMINVQNLLEAAEFL: the screen value came to 0.000431.

chain 1 VKMINVQALLEAAEFL: the screen value stood at 0.000466.

As for chain 1 VKMINVQVLLEAAEFL, the screen value is 2.88e-05.

Turning to chain 1 VKMINVQYLLEAAEFL, the screen value was found to be 0.000148.

Consider chain 1 VKMINVQILLEAAEFL, for which the screen value came to 0.000199.

As for chain 1 VKMINVQSLLEAAEFL, the screen value is 0.000529.

On to chain 1 VKMINVQQLLEAAEFL, for which the screen value came out at 0.000659.

For the variant chain 1 VKMINVQLLLEAAEFL, the screen value turned out to be 5.66e-05.

Consider chain 1 VKMINVQELLEAAEFL, for which the screen value was found to be 0.

On to chain 1 VKMINVQMLLEAAEFL, for which the screen value worked out at 9.12e-05.

For the variant chain 1 VKMINVQKLLEAAEFL, the screen value is 0.000316.

For the variant chain 1 VKMINVQRLLEAADFL, the screen value worked out at 0.0127.

In the case of chain 1 VKMINVQRLLEAAFFL, the screen value was found to be 0.000859.

In the case of chain 1 VKMINVQRLLEAANFL, the screen value was found to be 0.000159.

For chain 1 VKMINVQRLLEAAIFL, the screen value was 0.00251.

Regarding chain 1 VKMINVQRLLEAAGFL, the screen value turned out to be 0.00102.

With chain 1 VKMINVQRLLEAAVFL, the screen value is 0.0112.

On to chain 1 VKMINVQRLLEAAQFL, for which the screen value was 0.00119.

On to chain 1 VKMINVQRLLEAARFL, for which the screen value worked out at 0.00116.

For chain 1 VKMINVQRLLEAASFL, the screen value worked out at 0.00604.

Regarding chain 1 VKMINVQRLLEAAAFL, the screen value was found to be 0.0141.

As to chain 1 VKMINVQRLLEAAYFL, the screen value was 0.00266.

Turning to chain 1 VKMINVQRLLEAAMFL, the screen value was found to be 0.00144.

Turning to chain 1 VKNINVQRLLEAAEFL, the screen value amounted to 2.4e-05.

chain 1 VKTINVQRLLEAAEFL: the screen value is 4.82e-05.

For the variant chain 1 VKAINVQRLLEAAEFL, the screen value amounted to 6.73e-05.

In the case of chain 1 VKGINVQRLLEAAEFL, the screen value came out at 9.82e-05.

As for chain 1 VKDINVQRLLEAAEFL, the screen value worked out at 0.000126.

Take chain 1 VKLINVQRLLEAAEFL: the screen value turned out to be 0.

Consider chain 1 VKRINVQRLLEAAEFL, for which the screen value turned out to be 0.

On to chain 1 VKVINVQRLLEAAEFL, for which the screen value amounted to 0.000204.

In the case of chain 1 VKHINVQRLLEAAEFL, the screen value is 0.000154.

Take chain 1 VKWINVQRLLEAAEFL: the screen value was 8.38e-05.

For the variant chain 1 VKMIGVQRLLEAAEFL, the screen value is 0.000565.

As to chain 1 VKMIMVQRLLEAAEFL, the screen value was 0.0011.

In the case of chain 1 VKMILVQRLLEAAEFL, the screen value was determined as 0.00022.

For chain 1 VKMIFVQRLLEAAEFL, the screen value turned out to be 0.000135.

Take chain 1 VKMIWVQRLLEAAEFL: the screen value was determined as 0.00143.

In the case of chain 1 VKMITVQRLLEAAEFL, the screen value is 0.000204.

With chain 1 VKMINVQRLLEAAEFG, the screen value was found to be 5.21e-05.

For chain 1 VKMINVQRLLEAAEFK, the screen value came to 7.16e-05.

chain 1 VKMINVQRLLEAAEFV: the screen value is 7.65e-05.

In the case of chain 1 VKMINVQRLLEAAEFD, the screen value came to 5.21e-05.

On to chain 1 VKMINVQRLLEAAEFA, for which the screen value was found to be 0.000201.

On to chain 1 VKMINVQRLLEAAEFI, for which the screen value is 0.00145.

Regarding chain 1 VKMINVQRLLEAAEFE, the screen value stood at 7.18e-05.

In the case of chain 1 VKMINVQRLLEAAEFQ, the screen value worked out at 0.000343.

For the variant chain 1 VKMINVQRLLEAAEFH, the screen value was determined as 0.000538.

In the case of chain 1 VKMINVQRLLEAAEFS, the screen value stood at 9.12e-05.

For chain 1 VKMINVQRLLEAAEFM, the screen value was determined as 3.86e-05.

For chain 1 VKMINVQRLLEAAEFT, the screen value came out at 3.79e-05.

Take chain 1 VKMINVQRLLEAAEFN: the screen value amounted to 8.06e-05.

Take chain 1 VKMVNVQRLLEAAEFL: the screen value came to 0.00213.

As to chain 1 VKMTNVQRLLEAAEFL, the screen value was 0.000667.

Consider chain 1 VKMWNVQRLLEAAEFL, for which the screen value amounted to 8.32e-05.

Turning to chain 1 VKMKNVQRLLEAAEFL, the screen value worked out at 0.

Take chain 1 VKMHNVQRLLEAAEFL: the screen value is 0.000141.

As for chain 1 VKMLNVQRLLEAAEFL, the screen value came to 0.00108.

For chain 1 VKMGNVQRLLEAAEFL, the screen value was found to be 4.79e-05.

On to chain 1 VKMANVQRLLEAAEFL, for which the screen value came out at 0.

For chain 1 VKMNNVQRLLEAAEFL, the screen value is 0.000113.

Turning to chain 1 VKMFNVQRLLEAAEFL, the screen value came to 0.000274.

Turning to chain 1 VKMDNVQRLLEAAEFL, the screen value was found to be 0.00294.

On to chain 1 VKMMNVQRLLEAAEFL, for which the screen value came to 0.00797.

In a further test the parent is B2. The description is as above. The following applies: with PABPC1 PABC (PABPC1 PABC domain, residues 544-623); bait immobilised on MaxiSorp plates (10 µg), library pre-cleared on GST, 2 h binding at 4 °C, five washes; one round per day, days 1-4; value from days 2 and 3; keep out of graded; scale: average fractional NGS count over selection days 2 and 3.
On to chain 1 SKLSVNVPEFYPSGYS, for which the screen value was found to be 0.000178.

chain 1 SKLSVNPPEFYPSGYS: the screen value was 0.000137.

As for chain 1 SKLSVNNPEFYPSGYS, the screen value worked out at 0.000551.

chain 1 SKLSVNHPEFYPSGYS: the screen value is 0.000147.

For chain 1 SKLSVNQPEFYPSGYS, the screen value is 0.00119.

As to chain 1 SKLSVNMPEFYPSGYS, the screen value turned out to be 0.000228.

Turning to chain 1 SKLSVNTPEFYPSGYS, the screen value turned out to be 0.00119.

Take chain 1 SKLSVNLPEFYPSGYS: the screen value was found to be 4.17e-05.

As for chain 1 SKLSVNGPEFYPSGYS, the screen value was 0.000863.

On to chain 1 SKLSVNSPEFYPSGYS, for which the screen value amounted to 0.000407.

Take chain 1 SKLSVNAPFFYPSGYS: the screen value stood at 0.00034.

Regarding chain 1 SKLSVNAPDFYPSGYS, the screen value is 0.000746.

The values are drawn from article PMC12102759.
